{"source": "patent US6902918B1", "about": "“Oxygenase enzymes and screening method” (California Institute of Technology, priority 1998, dated 2005)", "key": {"[1]": {"assay": "HRP peroxidase activity test with ABTS and H2O2, expression in E. coli", "type": "cell-based, E. coli BL21(DE3)", "experimental": "The PCR products were ligated back into the pET-22b(+) vector which was transformed into the BL21(DE3) cells by electroporation. Cell growth and expression was carried out in either 96-well or 384-well microplates in LB medium at 30° C. Peroxidase activity tests were performed with H2O2 and ABTS (32).\nIPTG was omitted in all HRP expression experiments, unless otherwise specified. Peroxidase activity tests for HRP were performed with a classical peroxidase assay, ABTS and hydrogen peroxide (26). Fifteen μl of cell suspension was mixed with 140 μl of ABTS/H2O2 (2.9 mM ABTS, 0.5 mM H2O2, pH 4.5) in microplates, and the activity was determined with a SpectraMax plate reader (Molecular Devices, Sunnyvale, Calif.) at 25° C. A unit of HRP is defined as the amount of enzyme that oxidizes 1 μmole of ABTS per min at the assay conditions."}, "[2]": {"assay": "Colorimetric coupling of naphthol by laccase or HRP in cell solutions", "type": "biochemical", "settings": "1-naphthol 100 uM", "experimental": "Laccase was purchased from Sigma Chemicals as a crude acetone powder from the […] Rhus vernificera. […] Type II HRP (RZ approximately 2.0) and all other chemicals were purchased from Sigma. Fluorescence readings were taken with a Perkin-Elmer HTS 7000 plate reading fluorimeter. Excitation and emission wavelengths were 360 nm and 465 nm, respectively.\nExperiments were performed at 25° C. in the wells of opaque, white Nunc 96-well plates with a total liquid of 200 uL. Except where stated otherwise, each well contained 10% pure ethanol to improve the solubility of substrates and products. Where HRP was used for comparison, approximately 2.3 units of HRP and 5 mM H2O2 were in each well. […] Tris buffer was not used because it increases background fluorescence. Except where stated, results are given from conditions at pH 9.0, which were either the best results or barely distinguishable from the other conditions.\nIn order to evaluate laccase in a useful whole cell assay to identify the formation of hydroxylated aromatic compounds by oxidative enzymes (such as cytochrome P450cam and toluene dioxygenase), laccase was added to solutions containing cells, naphthalene, and naphthol. P450cam was expressed in E. coli strain BL21(DE3) using plasmid pCWori+. BL21(DE3) cells with and without the expressed protein were grown in Terrific Broth and after 8 hours were induced with 1 mM IPTG for 24 hours. […]"}, "[3]": {"settings": "ABTS assay; reported by Sigma; cited from earlier work"}, "[4]": {"assay": "Stability of mutant HRP at 4° C."}, "[5]": {"assay": "Whole cell naphthalene hydroxylation assay, P450cam in E. coli with added HRP, 96-well plate", "type": "cell-based", "settings": "TB and 1.3 mM ALA, 100 μL volume"}, "[6]": {"assay": "Fluorescence image analysis of colonies on agar plates with naphthalene and hydrogen peroxide", "type": "cell-based, E. coli BL21(DE3)", "settings": "naphthalene as substrate"}, "[7]": {"assay": "96-well plate whole cell assay of P450cam variants, generation of fluorescence per time, coumarin", "type": "cell-based, E. coli", "settings": "whole cells", "experimental": "(§1) For the microtitre plate assay, the cells (grown in 4 ml TB/amp (100 ug/ml) media) were centrifuged for 10 min at 4° C. After the supernatant solution was removed, the harvested cells were carefully resuspended in 1 ml buffer solution (dibasic phosphate, 100 mM, pH 9.0). Then, 20 μl aliquots were placed into a Nunc fluorescence microplate. The total 180 μl reaction mixture was made up of 100 μl dibasic sodium phosphate buffer (100 mM, pH9.0), 20 μl ethanol, 10 μl substrate stock (4.5 mM coumarin in 10% ethanol, or 2 mM 3-phenylpropionate in 10% ethanol, 2 mM naphthalene in pure ethanol), and 10 μl hydrogen peroxide stock solution (50 mM H2O2 stock). The other reaction conditions are those described in EXAMPLE 2. The fluorescence was measured as a function of time, and the relative rates presented in Table 2 are the slopes of that measurement (RFU/min)."}, "[8]": {"assay": "96-well plate whole cell assay of P450cam variants, generation of fluorescence per time, 3-phenylpropionate", "type": "cell-based, E. coli", "settings": "for Relative rate towards 3-phenylpropionate (generation of fluorescence per time): whole cells, 96-well plate", "experimental": "as §1"}, "[9]": {"type": "cell-based, E. coli", "settings": "for Relative rate towards naphthalene (generation of fluorescence per time): whole cells, 96-well plate"}}, "data": [{"molecule": "HRP: horseradish peroxidase; purchased from Sigma (type II) or expressed from synthetic gene in pETpelBHRP (protein, listed as Escherichia coli) MQLTPTFYDNSCPNVSNIVRDTIVNELRSDPRIAASILRLHFHDCFVNGCDASILLDNTTSFRTEKDAFGNANSARGFPVIDRMKAAVESACPRTVSCADLLTIAAQQSVTLAGGPSWRVPLGRRDSLQAFLDLANANLPAPFFTLPQLKDSFRNVGLNRSSDLVALSGGHTFGKNQCRFIMDRLYNFSNTGLPDPTLNTTYLQTLRGLCPLNGNLSALVDFDLRTPTIFDNKYYVNLEEQKGLIQSDQELFSSPDATDTIPLVRSFANSTQTFFNAFVEAMDRMGNITPLTGTQGQIRLNCRVVNSNS", "values": [{"measurement": "peroxidase activity in cells induced with IPTG", "setting": "[1]; 1 mM IPTG", "result": "no peroxidase activity above background"}, {"measurement": "activity against ABTS in cells not induced with IPTG", "setting": "[1]; no IPTG", "result": "weak but measurable activity"}, {"measurement": "time for color change from light yellow to dark brown", "setting": "[2]", "result": "approximately 1 minute"}, {"measurement": "total activity of 1 mg of highly purified HRP", "setting": "[3]", "result": "1,000 units"}]}, {"molecule": "HRP1A6: horseradish peroxidase mutant, Asn255 changed to Asp, SEQ. ID. NO. 17 (protein, listed as Escherichia coli) MQLTPTFYDNSCPNVSNIVRDTIVNELRSDPRIAASILRLHFHDCFVNGCDASILLDNTTSFRTEKDAFGNANSARGFPVIDRMKAAVESACPRTVSCADLLTIAAQQSVTLAGGPSWRVPLGRRDSLQAFLDLANANLPAPFFTLPQLKDSFRNVGLNRSSDLVALSGGHTFGKNQCRFIMDRLYNFSNTGLPDPTLNTTYLQTLRGLCPLNGNLSALVDFDLRTPTIFDNKYYVNLEEQKGLIQSDQELFSSPDATDTIPLVRSFANSTQTFFNAFVEAMDRMGNITPLTGTQGQIRLNCRVVNSNS", "values": [{"measurement": "total activity", "setting": "[1]; ABTS assay", "result": "greater than 100 units/L"}, {"measurement": "peroxidase activity on addition of IPTG", "setting": "[1]; as little as 5 μM of IPTG added", "result": "markedly decreased activity"}, {"measurement": "concentration of active HRP", "setting": "[1]; estimated from ABTS activity", "result": "~100", "unit": "µg/L"}, {"measurement": "higher peroxidase activity than the parent clone", "setting": "[1]; first generation, no IPTG added", "result": "10-14 fold"}, {"measurement": "share of HRP activity found in the LB culture medium", "setting": "[1]; judged by the ABTS activity", "result": "greater than 95%"}, {"measurement": "stability", "setting": "[4]", "result": "stable for up to a week"}]}, {"molecule": "WT: native cytochrome P450cam monooxygenase of P. putida, SEQ. ID. NO. 2 (protein, P. Putida) TTETIQSNANLAPLPPHVPEHLVFDFDMYNPSNLSAGVQEAWAVLQESNVPDLVWTRCNGGHWIATRGQLIREAYEDYRHFSSECPFIPREAGEAYDFIPTSMDPPEQRQFRALANQVVGMPVVDKLENRIQELACSLIESLRPQGQCNFTEDYAEPFPIRIFMLLAGLPEEDIPHLKYLTDQMTRPDGSMTFAEAKEALYDYLIPIIEQRRQKPGTDAISIVANGQVNGRPITSDEAKRMCGLLLVGGLDTVVNFLSFSMEFLAKSPEHRQELIERPERIPAACEELLRRFSLVADGRILTSDYEFHGVQLKKGDQILLPQMLSGLDERENACPMHVDFSRQKVSHTTFGHGSHLCLGQHLARREIIVTLKEWLTRIPDFSIAPGAQIQHKSGIVSGVQALPLVWDPATTKAV", "values": [{"measurement": "total activity (whole cell naphthalene hydroxylation)", "setting": "[5]", "result": 430, "unit": "RFU/min"}, {"measurement": "colony fluorescence in digital scan", "setting": "[6]", "result": "~320", "unit": "fluorescence units"}]}, {"molecule": "M7-4H (protein, Mutant M7-4H) TTETIQSNANLAPLPPHVPEHLVFDFDMYNPSNLSAGVQEAWAVLQESNVPDLVWTRCNGGHWIATRGQLIREAYEDYRHFSSECPFIPREAGEAYDFIPTSMDPPEQRQFRALANQVVGMPVVDKLENRIQELACSLIESLRPQGQCNFTEDYAEPFPIRIFMLLAGLPEEDIPHLKYLTDQMTRPDGSMTFAEAKEALYDYLIPIIEQRRQKPGTDAISIVANGQVNGRPITSDEAKRMCGLLLVGGLDTVVNFLSFSMEFLAKSPEHRQELIERPERIPAACEELLRRFSLVADGRILTSDYEFHGVQLKKGDQILLPQMLSGLDERKNACPMHVDFSRQKVSHTTFGHGSHLCLGQHLARREIIVTLKEWLTRIPDFSIAPGAQIQHKSGIVSGVQALPLVWDPATTKAV", "values": [{"measurement": "Relative rate towards coumarin (generation of fluorescence per time)", "setting": "[7]", "result": 11.5, "unit": "RFU/min"}, {"measurement": "Relative rate towards 3-phenylpropionate (generation of fluorescence per time)", "setting": "[8]", "result": 42.8, "unit": "RFU/min"}, {"measurement": "Relative rate towards naphthalene (generation of fluorescence per time)", "setting": "[9]", "result": 84.1, "unit": "RFU/min"}]}, {"molecule": "M7-8H (protein, Mutant M7-8H) TTETIQSNANLAPLPPHVPEHLVFDFDMYNPSNLSAGVQEAWAVLQESNVPDLVWTRCNGGHWIATRGQLIREAYEDYRHFSSECPFIPREAGEAYDFIPTSMDPPEQRQFRALANQVVGMPVVDKLENRIQELACSLIESLRPQGQCNFTEDYAEPFPIRIFMLLAGLPEEDIPHLKYLTDQMTRPDGSMTFAEAKEALYDYLIPIIEQRRQKPGTDAISIVANGQVNGRPITSDEAKRMFGLLLVGGLDTVVNFLSFSMEFLAKSPEHRQELIERPERIPAACEELLRRFSLVADGRILTSDYEFHGVQLKKGDQILLPQMLSGLDERKNACPMHVDFSRQKVSHTTFGHGSHLCLGQHLARREIIVTLKEWLTRIPDFSIAPGAQIQHKSGIVSGVQALPLVWDPATTKAV", "values": [{"measurement": "Relative rate towards coumarin (generation of fluorescence per time)", "setting": "[7]", "result": 12.8, "unit": "RFU/min"}, {"measurement": "Relative rate towards 3-phenylpropionate (generation of fluorescence per time)", "setting": "[8]", "result": 35.4, "unit": "RFU/min"}, {"measurement": "Relative rate towards naphthalene (generation of fluorescence per time)", "setting": "[9]", "result": 53.1, "unit": "RFU/min"}]}, {"molecule": "M7-6H (protein, Mutant M7-6H) TTETIQSNANLAPLPPHVPEHLVFDFDMYNPSNLSAGVQEAWAVLQESNVPDLVWTRCNGGHWIATRGQLIREAYEDYRHFSSECPFIPREAGEAYDFIPTSMDPPEQRQFRALANQVVGMPVVDKLENRIQELACSLIESLRPQGQCNFTEDYAEPFPIRIFMLLAGLPEEDIPHLKYLTDQMTRPDGSMTFAEAKEALYDYLIPIIEQRRQKPGTDAISIVANGQVNGRPITSDEAKRMCGLLLVGGLDTVVNFLSFSMEFLAKSPEHRQELIERPELIPAACEELLRRFSLVADGRILTSDYEFHGVQLKKGDQILLPQMLSGLDERKNACPMHVDFSRQKVSHTTFGHGSHLCLGQHLARREIIVTLKEWLTRIPDFSIAPGAQIQHKSGIVSGVQALPLVWDPATTKAV", "values": [{"measurement": "Relative rate towards coumarin (generation of fluorescence per time)", "setting": "[7]", "result": 14.1, "unit": "RFU/min"}, {"measurement": "increase in activity on 3-phenylpropionate compared to wild-type", "setting": "[8]; another series of experiments", "result": 3.2, "unit": "fold"}, {"measurement": "Relative rate towards 3-phenylpropionate (generation of fluorescence per time)", "setting": "[8]", "result": 43.6, "unit": "RFU/min"}, {"measurement": "increased activity over the wild type, naphthalene hydroxylation", "setting": "[9]; from Table 2 data", "result": 9.4, "unit": "fold"}, {"measurement": "Relative rate towards naphthalene (generation of fluorescence per time)", "setting": "[9]", "result": 86.7, "unit": "RFU/min"}]}]}
